{
  "source": "the nanobody polyreactivity screen of Harvey et al. (2022)",
  "data": [
    {"experiment": "yeast display, Sf9 membrane polyspecificity reagent, FACS + sequencing; frameworks hold sequencing errors", "outline": "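A synthetic nanobody library was expressed on Saccharomyces cerevisiae BJ5465 by galactose induction for 36–48 hours. The library was stained for 1 hour at 4 °C with 10% biotinylated, detergent-solubilized Sf9 membrane reagent and enriched with streptavidin microbeads before FACS. Low and high (top ~1%) gates were set on anti-HA fluorescence for expression and streptavidin fluorescence for reagent binding, and each polyreactivity label reflects the gate of origin.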", "values": [
      {"sequence": "QVQLVESGGGLVQAGGSLRLRCAASGSTFYRYALGWYRQAPGKERELVAVITSGGGTYSADSVKGRFSISRDNAKNTVYLQLNSRKPEDTAVYDCAARYLRTRNYQYDYWGQGTQVTVSS", "polyreactivity (PSR sort gate)": "high polyreactivity"},
      {"sequence": "QVQLVESGGGLVQAGGSLRLRCAASGSTFYYYAMGWYRQAPGKERELVAANTLRGTSTYYADSVKGRFTISRDNAKNTVYLQMNRLKPEDTAVYYCAVETYYSIFDIYDYWGQGTQVTVSS", "polyreactivity (PSR sort gate)": "low polyreactivity"},
      {"sequence": "QVQLVESGGGLVQAGGSLRLRCAASGSTLYIYAMGWYRQAPGKERELVAAITSSTGSTYADSVKGRFTISRDNAKNTVYLQMNSLKPEDTAVYYCNAGGPLQPYDYWGQGTQVTVSS", "polyreactivity (PSR sort gate)": "low polyreactivity"},
      {"sequence": "QVQLVESGGGLVQAGGSLRLRCAASGYIFGAYALGWYRQAPGKERELVAAIHVGDASAYYADSVKGRFTISRDNAKKTVYLQMNSLKPEDTAVYYCAKDRGSWEWYTVDYWGQGTQVTVSS", "polyreactivity (PSR sort gate)": "low polyreactivity"},
      {"sequence": "QVQLVESGGGLVQAGGSLRLRCAASGYTLGPYAMGWYRQAPGKERELVAAISWGGGRTYYADSVKGRFTISRDNAKNTVYLQMNSLKPEDTAVYYCAAKWSHVRDGPKYDYWGQGTQVTVSS", "polyreactivity (PSR sort gate)": "low polyreactivity"},
      {"sequence": "QVQLVESGGGLVQAGGSLRLRCAAYGSNFVLNAMGLDRKAPGKERELVAAISRGGASTYYADSVKGRFTIARDNSKNTVYLQMTSLKPEDTAVYYCNASGYGQGVVIYLVLYDYWGQGTQVTVSS", "polyreactivity (PSR sort gate)": "low polyreactivity"},
      {"sequence": "QVQLVESGGGLVQAGGSLRLRSASSGYILFAYAMVWYRQAPGKERELVATISNYGGITYYAESVKGRFTISRDNAKNTVYLQMNRLKPEDNAVYYCAAAEAGGLVTYDYWGQGTQVTVSS", "polyreactivity (PSR sort gate)": "low polyreactivity"},
      {"sequence": "QVQLVESGGGLVQAGGSLRLSCAAAGLTFQPYVLGWYRQAPGKERELVAAISVRTTRTYYADSVKGRFTISRDNAKNTVYLQMNSLKPEDTAVYYCNVSGVLYPFVSYDYWGQGTHVTVSS", "polyreactivity (PSR sort gate)": "low polyreactivity"},
      {"sequence": "QVQLVESGGGLVQAGGSLRLSCAAAGRISYANAMGWYRQAPGKERELVASITYSAGSTYADSVKGRFTISRDNAKNTVYLQMNSLKPEDTAVYYCAKRPSQHYRSYLMDYWGQGTQVTVSS", "polyreactivity (PSR sort gate)": "low polyreactivity"},
      {"sequence": "QVQLVESGGGLVQAGGSLRLSCAAAGSNFLGYAMGWYRQAPGKERELVANITSSGSTSYADSVKGRFTISRDNAKNTVYLQMNSLKPEVTAVYYCAARFRRTYDYWGQGTQVTVSS", "polyreactivity (PSR sort gate)": "high polyreactivity"},
      {"sequence": "QVQLVESGGGLVQAGGSLRLSCAAAGSTFSYYTMGWYRQAPGKERELVAAITRSGGRTYYADSVKGRFTISRDNAKYTVYLQMNSLKPEDTAVYYCAREYYPDWGQGTQVTVSS", "polyreactivity (PSR sort gate)": "high polyreactivity"},
      {"sequence": "QVQLVESGGGLVQAGGSLRLSCAACGFTFRYNAMGWYRQAPGKERELVAAITRGGGNTYYADSVKGRFTISRDHAKNTVYLQMNSLKPEDTAVYYCAAYSNGGRYDYGYWGQGTQVTVSS", "polyreactivity (PSR sort gate)": "high polyreactivity"},
      {"sequence": "QVQLVESGGGLVQAGGSLRLSCAACGGIFWHYTLGWYRKAPGKERELVAAITRRGGSTYYADSVMGRFTISRDNAKNTVYLQMNSLKPEDTAVYYCAADFLPQSYNWYDYWGQGTQVTVSS", "polyreactivity (PSR sort gate)": "low polyreactivity"},
      {"sequence": "QVQLVESGGGLVQAGGSLRLSCAACGLTFDDYAMGWSRQAPGKERELVAAISKSGDGTYYADSVKGRFTISRDNAKNTVYLQMNSLKPEDTAVYYCNADAKYWGFVYWWFGEDNWGQGTQVPVSS", "polyreactivity (PSR sort gate)": "low polyreactivity"},
      {"sequence": "QVQLVESGGGLVQAGGSLRLSCAACGRIFGENAMGWYRQAPGKERELVASISSTDSTYYADSVKGRFTISRDNAKNTVYLQMNSLKPEDTAVYYSAARWISVWSEGAEHDYWGQGTQVTVSS", "polyreactivity (PSR sort gate)": "low polyreactivity"},
      {"sequence": "QVQLVESGGGLVQAGGSLRLSCAACGRIFNRYAMGWYRQAPGKERELVAAIRYSGGRTYYADSVKGRFTISRDNAKNTVYLQMNSLKPEDTAVYYCAADGQWYYAPFRGGDYENDYWGQGTQVTVSS", "polyreactivity (PSR sort gate)": "low polyreactivity"},
      {"sequence": "QVQLVESGGGLVQAGGSLRLSCAACGSIFYWNAMVWYRQAPGKERELVAAINSGDSTNYADSVKGRFTISRDNAKNTVYFQMNSLKPEDTAVYYCAASIYAALNGGPGYDYWGLGTQVTVSS", "polyreactivity (PSR sort gate)": "low polyreactivity"},
      {"sequence": "QVQLVESGGGLVQAGGSLRLSCAANGYIFLIYDRGWYRQSPGKEMELVAAISNSVGSTYADSVKGRFTISRDNAKNTDYLQMNSLKPEDTAVYYCNADSGPIDGRGGYWGQGTQVTVSS", "polyreactivity (PSR sort gate)": "low polyreactivity"},
      {"sequence": "QVQLVESGGGLVQAGGSLRLSCAANTMGCYRQAPGKERELVAAINTGSSTYYADSVKGRFRISRDNAKNTVYLQMYCLKPEDTAVYYCNASYPPYFEYRTRQYNYWGQGTQVTVSS", "polyreactivity (PSR sort gate)": "low polyreactivity"},
      {"sequence": "QVQLVESGGGLVQAGGSLRLSCAAPGSTFYLYAMGWYRQAPGKERELVAAISSGGRTNYADSVKGRFTISRDNAKNTVYLQMNSLKPEDTAVYYCAARIQCPTWSLYYYWGQGTQVTVSS", "polyreactivity (PSR sort gate)": "high polyreactivity"},
      {"sequence": "QVQLVESGGGLVQAGGSLRLSCAASAFIFRFYTMGWYRQATGKETELVAAITSRGDRTYYADSVKRRFTISRENAKNPVYLQMNSLKPEDTAVYYCAKATRGYRSPYGSIGYYYRGQGTQVTVSS", "polyreactivity (PSR sort gate)": "high polyreactivity"},
      {"sequence": "QVQLVESGGGLVQAGGSLRLSCAASAGILRQNTMGWYRQAPGKERELVAAISSSGGRTYYADSVKGRFTISRDNAKNTVYLKMNSLIPDDPAVYYCAGKIVSRYRVIYDYWGQGTQVTVSS", "polyreactivity (PSR sort gate)": "high polyreactivity"},
      {"sequence": "QVQLVESGGGLVQAGGSLRLSCAASALTFFYYAMGWYRQAPGKERELVAAISWSGGRTYYADSVKGRFTISRDNAKNTVYLQMNSLKPEDTAVYYCSADYITAHSSYSTYGYWGQGTQVTVSS", "polyreactivity (PSR sort gate)": "low polyreactivity"},
      {"sequence": "QVQLVESGGGLVQAGGSLRLSCAASARIIGTYAMGWYRQATGKERELVAASTRGGTTYYADSVKGRFTISRDNAKNTVYLQMNSLIPEDTAVYYCATGPAIRYDYWGQGTQVTVSS", "polyreactivity (PSR sort gate)": "low polyreactivity"},
      {"sequence": "QVQLVESGGGLVQAGGSLRLSCAASARIIYSNAMGWYRQAPGKERELVATISTGGSTYADSVKGRFTISRDNAKNTVYLQINSLKPEDTAVYYCAVDEWRWRVGAVAYYYWGQGTQVTVSS", "polyreactivity (PSR sort gate)": "low polyreactivity"},
      {"sequence": "QVQLVESGGGLVQAGGSLRLSCAASARILRRNAMGWYRQAPGKEREFVAAITWRGGSTYYADSVKGRFTISRDNAKNTVYLQMNSLKPEDTAVYYCAADTYSVEYVLPYYYWGQGTQVTVSS", "polyreactivity (PSR sort gate)": "high polyreactivity"},
      {"sequence": "QVQLVESGGGLVQAGGSLRLSCAASARNFGYYAMGWYRPAPGKERELVAAISSGGNTYYADSVKGRFTISRDNAKNTVYLQMNSLKPEDTAVYYCNVVYVGWQYGYDYWGQGTQVTVSS", "polyreactivity (PSR sort gate)": "low polyreactivity"},
      {"sequence": "QVQLVESGGGLVQAGGSLRLSCAASARTFSRSALGWARQAPGKERELVAAISWSGGSTYYADSVKGRFTISRDKAKNSVYLQMNSLNPEDTAVYYCAAYSRWLPAYDYWGQGTQVTVSS", "polyreactivity (PSR sort gate)": "high polyreactivity"},
      {"sequence": "QVQLVESGGGLVQAGGSLRLSCAASARTYGANAMGRYRQAPGKERELVAAISYHGTRTYYADSVKGRFTISRDNAKNTVYLQMNSLKPEDTAVYYCAAVCKPGVYQEGDEWGQGTQVTVSS", "polyreactivity (PSR sort gate)": "high polyreactivity"},
      {"sequence": "QVQLVESGGGLVQAGGSLRLSCAASASIFRYYAMGWYRQAPGKERELVAAISYSGGSTYYADSVKGRFTISRDNAKNTVYLQMNSLKPEDTAVYYCAVPLICVDGYAYDYWGQGTQVTVSS", "polyreactivity (PSR sort gate)": "low polyreactivity"},
      {"sequence": "QVQLVESGGGLVQAGGSLRLSCAASASIFYQNAMGWYRQAPGKERELVAAISSAGSTYYADSVKGRFTISRDNAKNTVYLQMNSVKPEDTAVYYLLRGQGTQVTVSS", "polyreactivity (PSR sort gate)": "low polyreactivity"},
      {"sequence": "QVQLVESGGGLVQAGGSLRLSCAASASIFYRYAMGWFRQAPGKERELVAAISWRVTSTYYADSVKGRFTISRDNSKNTVYLQMNSLKPEDTAVYYCATAGTYTGGEGYWGQGTQVTVSS", "polyreactivity (PSR sort gate)": "high polyreactivity"},
      {"sequence": "QVQLVESGGGLVQAGGSLRLSCAASASTFGSYAMGWYRQAPGKERELVAAISRAGSTYADSVKGRFTISRDNAKNTVYLQMNSLKTEDTAVYYCAKRDYALYYGYDYWGQGTQVTVSS", "polyreactivity (PSR sort gate)": "low polyreactivity"},
      {"sequence": "QVQLVESGGGLVQAGGSLRLSCAASASTFVYNAKGWYRQAPGKERELVASITRSGSSTYYADSVKGRFTISRDNAKNTVYLQMNSLKPEDTAVYYCDVRYSVLSNYRYYYWGQGTQVTVSS", "polyreactivity (PSR sort gate)": "low polyreactivity"},
      {"sequence": "QVQLVESGGGLVQAGGSLRLSCAASASTLYSYAMGWYRQAPGKEREFVAAITSDDGSKYYADSVKGRFTISRDNAKNTVYLQMNSLKQEDTAVYYCATAASVEYNYWGEGTQVTVSS", "polyreactivity (PSR sort gate)": "low polyreactivity"},
      {"sequence": "QVQLVESGGGLVQAGGSLRLSCAASAYAMGWYRQAPGKERELVAAITVSGGSTHYADSVKGRFTISRDNAKNTVYLQMNSLKPEDTAVYYCNARYDVWYYYWGQGTQVTVSS", "polyreactivity (PSR sort gate)": "low polyreactivity"},
      {"sequence": "QVQLVESGGGLVQAGGSLRLSCAASGAIFFVNDMGWYRQAPGKERELVAAITYSSGGTYYADSVKGRFTISRDNAKNTVYLQMNSLKPEDTAVYYCAVDFFLSYYSDMDYWGQGTQVTVSS", "polyreactivity (PSR sort gate)": "low polyreactivity"},
      {"sequence": "QVQLVESGGGLVQAGGSLRLSCAASGAIFRYYAMGWYRPAPGKEREFVAAIRGSGGSPYYADSVKGRFTISRDNAKNTVYIQMISLKPEDTAVYYCAARKYSDRQVWYCYWGHGTQVTVSS", "polyreactivity (PSR sort gate)": "high polyreactivity"},
      {"sequence": "QVQLVESGGGLVQAGGSLRLSCAASGATFRIDAMGWYREAPGKERELVAAIARGGTSTYYADSVKGRFTISRDNAKNTVNLQMNSLKPEDTAVYYCAKRDQDRTFPNGYWGQGTKVTVSS", "polyreactivity (PSR sort gate)": "high polyreactivity"},
      {"sequence": "QVQLVESGGGLVQAGGSLRLSCAASGATFSYYAMGWYRQAPGKERELVAAISYSGGSTYYADSVKGRFTISRDNAKNTVYLQMNSLKPEDTAVYYCNARDPYYGDPSSLPDTRSRSDYWGQGTQVTVSS", "polyreactivity (PSR sort gate)": "low polyreactivity"},
      {"sequence": "QVQLVESGGGLVQAGGSLRLSCAASGATFYLNDMGWYREAPGKERELVAAIDWSGGSTYYADSVKGRFTISRDNAKNTVYLQMNSLKPEDTAVYYCAARLVYEWRRLDYFIAWDYCGQGTQVTVSS", "polyreactivity (PSR sort gate)": "low polyreactivity"},
      {"sequence": "QVQLVESGGGLVQAGGSLRLSCAASGCIFRYYAMGWYRQAPGKERELVAAISWGGGSTYYADSVKGRCTISRDNAKNTVYLQINSLKPEDTAVYYCNTYTYAWSRSKRGYWGQGTQVTVSS", "polyreactivity (PSR sort gate)": "high polyreactivity"},
      {"sequence": "QVQLVESGGGLVQAGGSLRLSCAASGCIFSDSTMGWYRQAPGKERELVAAISGIGGSTYYADSVKGRFTISRDNAKNTVYLQMNSLKPEDTAVYYCAADDYYYPYVSHDYWGQGTQVTVSS", "polyreactivity (PSR sort gate)": "low polyreactivity"}
    ]}
  ]
}
